Data reported in patent publication US20260217854A1.

Biological target: coil 2 domain of TMCC3 protein (UniProt Q9ULS5)
Experiment: ELISA on TMCC3 domain proteins

- Kd: 0.01 nM
B1: mouse anti-TMCC3 8D6 monoclonal antibody (antibody, V domains shown)
VH: EIQLQQSGGELVKPGASVKISCTASGYSFTGYNMNWVKQSHGKSPEWIGNINPYYGSTSYNQKFKGKATLTVDKSSSTAYMQLNSLTSEDSAVYYCARWLGLGYAMDYWGQGTSVTVSS
VL: DIVLTQSPASLVVSLGQGATISCRASKSVSPSGYSSMHWYQQKPGQPPKLLIYLASNLESGVPARFSGSGSGTDFTLNIHPVEEEDAATYYCQHSRELPWTFGGGTKLEIKR
